According to the supplement of paper PMC9170038:

Columns and labels:
MS2 coat protein [1] = test: apparent KD of MS2 coat protein, switch ON state; designed switch direction (-1 OFF switch, 1 ON switch): -1; higher = weaker reporter binding; details: FMN input: 0 or 200 uM; Eterna round: R93 (includes R88 designs)
Method in brief: (§1)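 Illumina sequencing clusters were used for on-chip transcription of designed RNA switches. Titration with SNAP-549-labelled MS2 coat protein followed, in twofold steps from 0.7 or 1.5 nM to 3 µM in 100 mM Tris-HCl pH 7.5, 80 mM KCl, 4 mM MgCl2, without or with constant ligand. Apparent KD is each design's median of fits to normalised cluster binding curves.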

MS2 coat protein [2] = test: apparent KD of MS2 coat protein, switch OFF state (with FMN for OFF switches, without FMN for ON switches); designed switch direction (-1 OFF switch, 1 ON switch): -1; higher = weaker reporter binding; details: FMN input: 0 or 200 uM; Eterna round: R93 (includes R88 designs)
Method in brief: as §1

Row | Sequence | apparent KD of MS2 coat protein (MS2 coat protein [1]) [nM] | apparent KD of MS2 coat protein (MS2 coat protein [2]) [nM]
1 | ACAAACCUAGGAUAUACAUGAGGAUCACCCAUGUACAAAGGCGUAGGCGACAAAAGAGGUAGAAGGAGGAAAGG [Disoed] | 21.9 | 22.9
2 | ACAAGAUCAGGAUAUACAUGAGGAUCACCCAUGUGAAAGAACGAUUAACGACCAGCAAGUAGAAGGGAUCAGGA [Ruby 82] | 20.5 | 28.5
3 | ACAGUUACAGGAUAUACAUAGGAAAAAAAAAAAAAAAUUCAACAUGAGGAUCACCCAUGUAGAAGGGUAACUGA [Ex2 Design 173: Random 2B] | 93.3 | 144
4 | ACGAACCUAGGAUAUACAUGAGGAUCACCCAUGUACAACUAUCCAUGAAUGACACUCGGUAGAAGGAGGAUCAA [Rileenen] | 15 | 22.9
5 | ACUUGACAUGAGGAUCACCCAUGUCAGGAUAUAGUAGGACAAAUAAAUAAAAGUUCUACUAGAAGGGAUAUGGA [Design 18: G-U+ 3] | 16.7 | 15.7
6 | AGAAUACAUGAGGAUCACCCAUGUGAGGAUAUCAAAAGAAAAAGAAAAGAAAAGAAAAUGAGAAGGCACAAAAG [EX 1 May 14] | 48.3 | 51.7
7 | AGCAAACAUGAGGAUCACCCAUGUCAGGAUAUGAACGAAAUAAAUAAAAAAUAAAAGUUCAGAAGGGACGAGCA [Mat - Exclusion 1 - Eli mod - D25] | 32.4 | 42.9
8 | AGCAAACAUGAGGAUCACCCAUGUGAGGAUAUGAACGAAAUAAAAUAAAAAUAAAAGUUCAGAAGGCACGAGCA [Mat - Exclusion 1 - Eli mod - D26] | 27.3 | 37.4
9 | AGCAAGUUAGGAUAUGCGAAGUCAGGACACACACUGACAAAGCAGAAGGAACAUGAGGAUCACCCAUGUAAGCA [Mat - Exaclusion 4 - Eli mod - D64] | 29.9 | 20.8
10 | AGCACGUCAGGAUAUACGAACACAAAGGGUAACAACAAGGGACAUGAGGAUCACCCAUGUAGAAGGGACUAGCA [Diamond 96] | 58.2 | 61.9
11 | AGCAGUACAGGAUAUACAUGAGGAUCACCCAUGUGAAAAUAAAGUGGCGUACCACAAAGUAGAAGGGUACUGCA [Mat - Exclusion 3 - JL mod - D31] | 34.2 | 104
12 | AGCUAGCGAGGAUAUGCGAACAUGUCAAAAGACGUGAAGGGACAUGAGGAUCACCCAUGUAGAAGGCGCUAGCA [JL 74% mod 4] | 24.7 | 29.6
13 | AGCUAGCUAGGAUAUACGAACAUGUCAAAAGACGUGAAGGGACAUGAGGAUCACCCAUGUAGAAGGAGCUAGCA [JL 74% mod 6] | 28.7 | 121
14 | AGCUAGUCAGGAUAUACAAAAAUGACAGAAGACGUAAGGGAACAUGAGGAUCACCCAUGUAGAAGGGACUAGCA [Diamond 43] | 61.5 | 184
15 | AGCUAGUCAGGAUAUACAUAAAAAAAAAAAAAAAGUGAUAAACAUGAGGAUCACCCAUGUAGAAGGGACUAGCA [Similarities v.4.2 (34 mutated to A)] | 29 | 48.3
16 | AGCUAGUCAGGAUAUACGAACAUGUAAAAAGACGUGAAGGGACAUGAGGAUCACCCAUGUAGAAGGGACUAGCA [74%, Web mod - With 1 less C's] | 33.9 | 108
17 | AGCUAGUCAGGAUAUGCAUGAAUGUCAAAAGACGUAAAGGGACAUGAGGAUCACCCAUGUAGAAGGGACUAGCA [JL In the Red 4?] | 120 | 277
18 | AGCUAGUGAGGAUAUACAAGAAUAUAAACAAAAAUGAAGGGACAUGAGGAUCACCCAUGUAGAAGGCACUAGCA [Diamond 72] | 55.2 | 221
19 | AGCUAGUGAGGAUAUACGAACAUGUCAAAAGACUGUAAGGGACAUGAGGAUCACCCAUGUAGAAGGCACUAGCA [Diamond 55] | 55.7 | 294
